Test results reported in PMC3549490.
Values joined by “and” are separate entries in the source; they are usually repeats but may differ in a detail not shown here. Equal entries are not always repeated.

Columns and labels:
[1] = biological target: UNC-45 (C. elegans), full-length recombinant protein (C. elegans); test: ITC
[2] = biological target: UNC-45 Q452pBpa (wild-type Q452B) (C. elegans); test: cross-linking

Substance | Kd [1] | stoichiometry N [2]
Hsp90 (DAF-21 in C. elegans), full-length recombinant protein (from UniProt Q18688 1-702) (natural protein) | 31 µM | 
UNC-45 Q452pBpa (wild-type Q452B) (natural protein) |  | 2 and > 5
